Assay [1] addresses anti-VEGF/ANG2 antibody (IgG1 subclass with mutations P329G/L234A/L235A/I253A/H310A/H435A) (human) [IgG part: P01857]. Put plainly: sandwich ELISA assay B; capture on SA plate; tracer M1.7.10-Dig; analyte 50 ng/mL. (In general: ELISA stands for enzyme-linked immunosorbent assay.)
Assay [2] deals with anti-VEGF/ANG2 antibody (IgG1 subclass with mutations P329G/L234A/L235A) (human) [IgG part: P01857]. The assay is described as above.
Assay [3] concerns the target anti-IGF-1R antibody (IgG1 subclass with mutations I253A/H310A/H435A) (human) [IgG part: P01857]. The assay is described as above.
Assay [4] addresses anti-P-Selectin antibody (IgG4 subclass with mutations S228P/L235E) [IgG part: P01861]. As to the kind of experiment: sandwich ELISA assay A; capture M1.7.10-Bi; antibody 4 at 3 ng/mL.
Assay [5] deals with anti-P-Selectin antibody (IgG4 subclass with mutations S228P/L235E) (human) [IgG part: P01861]. Put plainly: sandwich ELISA assay B; capture on SA plate; tracer M1.7.10-Dig; analyte 0 ng/mL (blank).
For assay [6], the target named is anti-VEGF/ANG2 antibody (IgG1 subclass with mutations P329G/L234A/L235A/I253A/H310A/H435A) (human) [IgG part: P01857]. Described as above.
In assay [7] the target is anti-VEGF/ANG2 antibody (IgG1 subclass with mutations P329G/L234A/L235A) (human) [IgG part: P01857]. Described as above.
Assay [8] deals with anti-IGF-1R antibody (IgG1 subclass with mutations I253A/H310A/H435A) (human) [IgG part: P01857]. The assay is described as above.
The target of assay [9] is anti-VEGF/ANG2 antibody (IgG1 subclass with mutations P329G/L234A/L235A/I253A/H310A/H435A) [IgG part: P01857]. As to the kind of experiment: sandwich ELISA assay A; capture M1.7.10-Bi; antibody 1 at 25 ng/mL.
Assay [10] concerns the target anti-P-Selectin antibody (IgG4 subclass with mutations S228P/L235E) (human) [IgG part: P01861]. As to the kind of experiment: sandwich ELISA assay B; capture on SA plate; tracer M1.7.10-Dig; analyte 25 ng/mL.
Assay [11] deals with anti-VEGF/ANG2 antibody (IgG1 subclass with mutations P329G/L234A/L235A/I253A/H310A/H435A) (human) [IgG part: P01857]. Described as above.
The target of assay [12] is anti-VEGF/ANG2 antibody (IgG1 subclass with mutations P329G/L234A/L235A) (human) [IgG part: P01857]. The description is as above.
The target in assay [13] is anti-IGF-1R antibody (IgG1 subclass with mutations I253A/H310A/H435A) (human) [IgG part: P01857]. The assay is described as above.
The target of assay [14] is anti-P-Selectin antibody (IgG4 subclass with mutations S228P/L235E) (human) [IgG part: P01861]. As to the kind of experiment: sandwich ELISA assay B; capture on SA plate; tracer M1.7.10-Dig; analyte 6 ng/mL.
Assay [15] has as its target anti-VEGF/ANG2 antibody (IgG1 subclass with mutations P329G/L234A/L235A/I253A/H310A/H435A) (human) [IgG part: P01857]. The description is as above.
Assay [16] deals with anti-VEGF/ANG2 antibody (IgG1 subclass with mutations P329G/L234A/L235A) (human) [IgG part: P01857]. The description is as above.
Assay [17] deals with anti-IGF-1R antibody (IgG1 subclass with mutations I253A/H310A/H435A) (human) [IgG part: P01857]. The description is as above.
Assay [18] addresses anti-VEGF/ANG2 antibody (IgG1 subclass with mutations P329G/L234A/L235A) [IgG part: P01857]. As to the kind of experiment: sandwich ELISA assay A; capture M1.7.10-Bi; antibody 2 at 0 ng/mL (blank).
Assay [19] concerns the target anti-P-Selectin antibody (IgG4 subclass with mutations S228P/L235E) (human) [IgG part: P01861]. Put plainly: sandwich ELISA assay B; capture on SA plate; tracer M1.7.10-Dig; analyte 13 ng/mL.
Assay [20] deals with anti-VEGF/ANG2 antibody (IgG1 subclass with mutations P329G/L234A/L235A/I253A/H310A/H435A) (human) [IgG part: P01857]. Described as above.
Assay [21] concerns the target anti-VEGF/ANG2 antibody (IgG1 subclass with mutations P329G/L234A/L235A) (human) [IgG part: P01857]. Described as above.
The target of assay [22] is anti-IGF-1R antibody (IgG1 subclass with mutations I253A/H310A/H435A) (human) [IgG part: P01857]. The assay is described as above.
Assay [23] addresses anti-P-Selectin antibody (IgG4 subclass with mutations S228P/L235E) [IgG part: P01861]. Put plainly: sandwich ELISA assay A; capture M1.7.10-Bi; antibody 4 at 50 ng/mL.
The target of assay [24] is anti-IGF-1R antibody (IgG1 subclass with mutations I253A/H310A/H435A) [IgG part: P01857]. Put plainly: sandwich ELISA assay A; capture M1.7.10-Bi; antibody 3 at 3 ng/mL.

B1: anti-variant (human) Fc-region antibody M1.3.17 (antibody, V domains shown)
VH: EVKLLESGGGLVQPGGSLKLSCAASGIDFRRYWMNWVRQAPGKGLEWIGEIDPDSSTINYTPSLKDKFIISRDNAKNTMYLQMRKVRSEDTALYYCARPYDYGAWFAYWGQGTLVTVSA
VL: QAVVTQESALTTSPGETVTLTCRSTTGAVTTSNYANWVQEKPDHLFTGLIGGTNKRAPGVPARFSGSLIGDKAALTITGAQTEDEAIYFCALWYSDHWVFGGGTKLTVL
For the molecule B1, the signal [OD405 nm] was 0.035 OD405 nm in assay [1]; 0.215 OD405 nm in [2]; 0.048 OD405 nm in assay [3]; 0.033 OD405 nm in assay [4]; 0.049 OD405 nm in assay [5]; 0.035 OD405 nm in [6]. Also, the signal [OD405 nm] in assay [7] turned out to be 0.038 OD405 nm; in assay [8], 0.045 OD405 nm; in [9] it was 0.04 OD405 nm; in assay [10] it was 0.047 OD405 nm; in [11], 0.035 OD405 nm; in assay [12] it was 0.213 OD405 nm. The signal [OD405 nm] in assay [13] amounted to 0.046 OD405 nm; in assay [14], 0.048 OD405 nm; in [15] it was 0.035 OD405 nm; in [16] it was 0.196 OD405 nm; in assay [17], 0.045 OD405 nm; in assay [18], 0.042 OD405 nm. For the same molecule, the signal [OD405 nm] was found to be 0.047 OD405 nm in [19]; 0.034 OD405 nm in [20]; 0.217 OD405 nm in assay [21]; 0.044 OD405 nm in assay [22]; 0.037 OD405 nm in [23]; 0.036 OD405 nm in assay [24].

B2: anti-variant (human) Fc-region antibody M1.7.24 (antibody, V domains shown)
VH: EVKLLESGGGLVQPGGSLKLSCAASGFDFSRYWMNWVRQAPGKGLEWIGEITPDSSTINYTPSLKDKFIISRDNAKNTLYLQMIKVRSEDTALYYCVRPYDYGAWFASWGQGTLVTVSA
VL: QAVVTQESALTTSPGETVTLTCRSSTGAVTTSNYANWVQEKPDHLFTGLIGGTNKRAPGVPARFSGSLIGDKAALTITGAQTEDEAIYFCALWYSNHWVFGGGTKLTVL
On to B2, for which the signal [OD405 nm] worked out at 0.06 OD405 nm in [1]; 3.17 OD405 nm in [2]; 0.064 OD405 nm in [3]; 0.04 OD405 nm in assay [4]; 0.035 OD405 nm in assay [5]; 0.049 OD405 nm in assay [6]. In addition, the signal [OD405 nm] worked out at 0.046 OD405 nm in assay [7]; 0.04 OD405 nm in [8]; 0.047 OD405 nm in assay [9]; 0.04 OD405 nm in assay [10]; 0.047 OD405 nm in assay [11]; 3.16 OD405 nm in [12]. The signal [OD405 nm] in [13] came out at 0.048 OD405 nm; in [14] it was 0.037 OD405 nm; in assay [15] it was 0.053 OD405 nm; in assay [16], 2.98 OD405 nm; in [17] it was 0.039 OD405 nm; in [18], 0.043 OD405 nm. Moreover, the signal [OD405 nm] in [19] came to 0.037 OD405 nm; in assay [20], 0.053 OD405 nm; in assay [21] it was 3.15 OD405 nm; in [22], 0.043 OD405 nm; in [23] it was 0.049 OD405 nm; in assay [24], 0.045 OD405 nm.

B3: anti-AAA variant Fc-region antibody M1.6.22 (antibody, V domains shown)
VH: EVQLVESGGDLVKPGGSLKLSCAASGFTFSSYGMSWVRQTPDKRLEWVATISSGGSYIYYPDSVKGRFTISRDNAKNTLYLQMSSLKSEDTAMYYCARLGMITTGYAMDYWGQGTSVTVSS
VL: DVLMTQTPLSLPVSLGDQASISCRSSQTIVHSTGHTYLEWFLQKPGQSPKLLIYKVSNRFSGVPDRFSGSGSGTDFTLKISRVEAEDLGVYYCFQGSHVPYTFGGGTKLEIK
B3: the signal [OD405 nm] in assay [1] was 0.05 OD405 nm; in assay [2] it was 0.127 OD405 nm; in assay [3] it was 2.9 OD405 nm; in assay [4], 0.037 OD405 nm; in assay [5], 0.038 OD405 nm; in [6] it was 0.047 OD405 nm. Besides, the signal [OD405 nm] in [7] was found to be 0.038 OD405 nm; in assay [8], 0.037 OD405 nm; in [9] it was 0.061 OD405 nm; in assay [10] it was 0.048 OD405 nm; in assay [11] it was 0.044 OD405 nm; in assay [12] it was 0.092 OD405 nm. Besides, the signal [OD405 nm] in assay [13] was 2.89 OD405 nm; in [14], 0.04 OD405 nm; in [15] it was 0.039 OD405 nm; in assay [16] it was 0.053 OD405 nm; in [17], 2.73 OD405 nm; in [18], 0.048 OD405 nm. For the same molecule, the signal [OD405 nm] is 0.042 OD405 nm in [19]; 0.041 OD405 nm in assay [20]; 0.066 OD405 nm in assay [21]; 2.85 OD405 nm in [22]; 0.052 OD405 nm in [23]; 0.414 OD405 nm in [24].

Source of the values: patent US20180346602A1.
